From paper PMC6384901, “Cyclic Peptide-Based Sirtuin Substrates” (Molecules, 2019)

What was measured:
Assay type in all cases: biochemical, human
[1] = substrate: CCCCCCCCCCCCCC(=O)NCCCC[C@@H]1NC(=O)[C@H](CCCNC(=N)N)NC(=O)[C@@H](NC(C)=O)CCCCNC(=O)CCCCCCC(=O)NCCCC[C@@H](C(=O)N[C@H](C(N)=O)[C@@H](C)O)NC1=O; assay: HPLC-based sirtuin deacylation activity assay, SIRT2; settings: other: substrate activity with SIRT2, 50 mM Hepes pH 8.0, 0.5 mM β-NAD+, His6-SIRT2 297 nM, 37 °C, 2 min, HPLC 214 nm, Michaelis-Menten fit
Procedure: (§1) The steady-state kinetic parameters (kcat and KM) for the SIRT1/2/3 substrate activities of the purified 5–8 were determined with a HPLC-based sirtuin deacylation activity assay and are recorded in Table 2 and Table 3. As judged by kcat/KM ratios, cyclic peptides 5–8 were all found to be excellent SIRT1 substrates, actually 5, 7, and 8 are all better SIRT1 substrates than the linear hexapeptide-based SIRT1 substrate 3 (depicted in Figure 2) reported in the current literature (kcat/KM = 800 M^−1 s^−1). Cyclic peptides 5–8 were also all found to be better SIRT3 substrates than the linear hexapeptide-based SIRT3 substrate 3 reported in the current literature (kcat/KM = 990 M^−1·s^−1).
(§2) The following materials were obtained from commercial sources for the in vitro sirtuin deacylation activity assay and the pronase digestion assay, and were used as received. Sigma-Aldrich China: the active human recombinant His6-SIRT1, Trizma, Hepes, β-NAD^+, a 1.0 M solution of MgCl2 (molecular-biology grade), the pronase from Streptomyces griseus; Cayman Chemical (Ann Arbor, MI, USA): the active human recombinant GST-SIRT1, the active human recombinant His6-SIRT2, the active human recombinant His6-SIRT3; TCI Shanghai: DL-dithiothreitol (DTT); Alfa Aesar China: NaCl, KCl.
(§3) A sirtuin deacylation assay solution contained the following: 50 mM Hepes (pH 8.0), 137 mM NaCl, 2.7 mM KCl, 1 mM MgCl2, 1 mM DTT, β-NAD^+ (~5.6 × KM: 0.5 mM for the SIRT1 and SIRT2 assays, 3.5 mM for the SIRT3 assay), one test compound (5, 6, 7, or 8) with varied concentrations including 0, and a sirtuin (His6-SIRT1 or GST-SIRT1, 243 nM; His6-SIRT2, 297 nM; or His6-SIRT3, 739 nM). An enzymatic reaction was initiated by the addition of a sirtuin at 37 °C and was incubated at 37 °C for 5 min (for the SIRT1 assay) or 2 min (for the SIRT2 and SIRT3 assays) until quenched with the following stop solution: 100 mM HCl and 0.16 M acetic acid. The quenched assay solutions were directly injected into a C18 column (0.46 × 25 cm, 5 μm), and the column was eluted with a gradient of ddH2O containing 0.05% (v/v) TFA and acetonitrile containing 0.05% (v/v) TFA at 1 mL/min and was monitored at 214 nm. Turnover of the limiting substrate was kept at <10%. Stock solutions of the test compounds were all prepared in ddH2O. The integrated product and substrate HPLC peak areas were then used to determine the initial velocities for the sirtuin-catalyzed deacylation reaction at different concentrations of a test compound (5, 6, 7, or 8). The initial velocity-concentration data were analyzed with KaleidaGraph® (Synergy Software, Reading, PA, USA) and the data were fitted to the Michaelis-Menten equation to obtain the kinetic parameters kcat and KM, as recorded in Table 2 and Table 3.

[2] = substrate: CSCC[C@H](NC(=O)[C@@H]1CCCCNC(=O)CCC(=O)NCCCC[C@H](NC(C)=O)C(=O)N[C@@H](CCCCN)C(=O)N[C@@H](CCCCNC(C)=O)C(=O)N1)C(N)=O; assay: as above; settings: other: substrate activity with SIRT2, 50 mM Hepes pH 8.0, 0.5 mM β-NAD+, His6-SIRT2 297 nM, 37 °C, 2 min, HPLC 214 nm, Michaelis-Menten fit
Procedure: as §1, §2, §3

[3] = substrate: CSCC[C@H](NC(=O)[C@@H]1CCCCNC(=O)CNC(=O)CCCCCCC(=O)NCC(=O)NCCCC[C@H](NC(C)=O)C(=O)N[C@@H](CCCCN)C(=O)N[C@@H](CCCCNC(C)=O)C(=O)N1)C(N)=O; assay: as above; settings: other: substrate activity with SIRT2, 50 mM Hepes pH 8.0, 0.5 mM β-NAD+, His6-SIRT2 297 nM, 37 °C, 2 min, HPLC 214 nm, Michaelis-Menten fit
Procedure: as §1, §2, §3

[4] = substrate: CCCCCCCCCCCCCC(=O)NCCCC[C@@H]1NC(=O)[C@H](CCCNC(=N)N)NC(=O)[C@@H](NC(C)=O)CCCCNC(=O)CCCCCCC(=O)NCCCC[C@@H](C(=O)N[C@H](C(N)=O)[C@@H](C)O)NC1=O; assay: HPLC-based sirtuin deacylation activity assay, SIRT3; settings: other: substrate activity with SIRT3, 50 mM Hepes pH 8.0, 3.5 mM β-NAD+, His6-SIRT3 739 nM, 37 °C, 2 min, HPLC 214 nm, Michaelis-Menten fit
Procedure: as §1, §2, §3

[5] = substrate: CSCC[C@H](NC(=O)[C@@H]1CCCCNC(=O)CCC(=O)NCCCC[C@H](NC(C)=O)C(=O)N[C@@H](CCCCN)C(=O)N[C@@H](CCCCNC(C)=O)C(=O)N1)C(N)=O; assay: as above; settings: other: substrate activity with SIRT3, 50 mM Hepes pH 8.0, 3.5 mM β-NAD+, His6-SIRT3 739 nM, 37 °C, 2 min, HPLC 214 nm, Michaelis-Menten fit
Procedure: as §1, §2, §3

[6] = substrate: CSCC[C@H](NC(=O)[C@@H]1CCCCNC(=O)CNC(=O)CCCCCCC(=O)NCC(=O)NCCCC[C@H](NC(C)=O)C(=O)N[C@@H](CCCCN)C(=O)N[C@@H](CCCCNC(C)=O)C(=O)N1)C(N)=O; assay: as above; settings: other: substrate activity with SIRT3, 50 mM Hepes pH 8.0, 3.5 mM β-NAD+, His6-SIRT3 739 nM, 37 °C, 2 min, HPLC 214 nm, Michaelis-Menten fit
Procedure: as §1, §2, §3

Protein	Km [1]	kcat [1]	kcat/Km [1]	Km [2]	kcat [2]	kcat/Km [2]	Km [3]	kcat [3]	kcat/Km [3]	Km [4]	kcat [4]	kcat/Km [4]	Km [5]	kcat [5]	kcat/Km [5]	Km [6]	kcat [6]	kcat/Km [6]
human recombinant His6-SIRT2 (Homo sapiens) (protein, His6; purchased Cayman Chemical) MAEPDPSHPLETQAGKVQEAQDSDSDSEGGAAGGEADMDFLRNLFSQTLSLGSQKERLLDELTLEGVARYMQSERCRRVICLVGAGISTSAGIPDFRSPSTGLYDNLEKYHLPYPEAIFEISYFKKHPEPFFALAKELYPGQFKPTICHYFMRLLKDKGLLLRCYTQNIDTLERIAGLEQEDLVEAHGTFYTSHCVSASCRHEYPLSWMKEKIFSEVTPKCEDCQSLVKPDIVFFGESLPARFFSCMQSDFLKVDLLLVMGTSLQVQPFASLISKAPLSTPRLLINKEKAGQSDPFLGMIMGLGGGMDFDSKKAYRDVAWLGECDQGCLALAELLGWKKELEDLVRREHASIDAQSGAGVPNPSTSASPKKSPPPAKDEARTTEREKPQ	37.6 ± 14.4 µM	90.9 ± 2.62 10^−3, s^−1	(2.6 ± 0.93) × 10^3 M^−1·s^−1	49.7 ± 7.78 µM	138.9 ± 26.7 10^−3, s^−1	(2.79 ± 0.1) × 10^3 M^−1·s^−1	11.6 ± 2.2 µM	36.0 ± 4.9 10^−3, s^−1	(3.2 ± 1.0) × 10^3 M^−1·s^−1									
human recombinant His6-SIRT3 (Homo sapiens) (protein, His6; purchased Cayman Chemical) MAFWGWRAAAALRLWGRVVERVEAGGGVGPFQACGCRLVLGGRDDVSAGLRGSHGARGEPLDPARPLQRPPRPEVPRAFRRQPRAAAPSFFFSSIKGGRRSISFSVGASSVVGSGGSSDKGKLSLQDVAELIRARACQRVVVMVGAGISTPSGIPDFRSPGSGLYSNLQQYDLPYPEAIFELPFFFHNPKPFFTLAKELYPGNYKPNVTHYFLRLLHDKGLLLRLYTQNIDGLERVSGIPASKLVEAHGTFASATCTVCQRPFPGEDIRADVMADRVPRCPVCTGVVKPDIVFFGEPLPQRFLLHVVDFPMADLLLILGTSLEVEPFASLTEAVRSSVPRLLINRDLVGPLAWHPRSRDVAQLGDVVHGVESLVELLGWTEEMRDLVQRETGKLDGPDK										4.2 ± 0.38 µM	60.0 ± 2.8 10^−3, s^−1	(14.3 ± 0.66) × 10^3 M^−1·s^−1	34.9 ± 4.04 µM	155.3 ± 16.6 10^−3, s^−1	(4.51 ± 1.0) × 10^3 M^−1·s^−1	4.5 ± 0.9 µM	15.8 ± 1.4 10^−3, s^−1	(3.6 ± 0.4) × 10^3 M^−1·s^−1
